The values below are quoted from earlier work in patent publication US12539328B2, “Oral vaccine via dental bacteria and emitted peptides to prevent COVID-19 infection” (priority 2021, dated 2026).

As usually defined, the IC50 is the midpoint of a concentration-inhibition curve.

The data set deals with SARS-CoV-2 infection of Vero E6 cells. As to conditions: first approach, built around an ACE2 helix; read-out: IC50 of SARS-CoV-2 neutralization.

B1: AHB2 (protein)
chain: ELEEQVMHVLDQVSELAHELLHKLTGEELERAAYFNWWATEMMLELIKSDDEREIREIEEEARRILEHLEELARK
With B1, the 50% inhibitory concentration (IC50) is 15.5 nM.

B2: AHB1 (protein)
chain: DEDLEELERLYRKAEEVAKEAKDASRRGDDERAKEQMERAMRLDQVFELAQELQEKQTDGNRQKATHLDKAVKEAADELYQRVR
Regarding B2, the IC50 was 35 nM.
